# Columns and labels:
# [1] = target: human G Protein coupled receptor 48 (GPR48), endogenous, in colorectal cancer cells, tissues and organoids (human) (UniProt Q9BXB1); experiment: cell-based or functional assay
# [2] = target: human G Protein coupled receptor 48 (GPR48), endogenous, in colorectal cancer cells, tissues and organoids (human) (UniProt Q9BXB1); experiment: western blot on P6C lysate, dilution series of antibody
# [3] = target: human G Protein coupled receptor 48 (GPR48), endogenous, in colorectal cancer cells, tissues and organoids (human) (UniProt Q9BXB1); experiment: flow cytometry on P6C cells, dilution series of antibody, FITC goat anti-mouse IgG
substance,measurement,setting,value
"Commercial GPR48 monoclonal antibody, R&D Systems, clone #852229, product number MAB7750","inhibition rate, colony formation of HCT116 cells, 10 µg/ml antibody",[1],15.4%
same,"inhibition rate, colony formation of P6C cells, 10 µg/ml antibody",[1],9.7%
same,"inhibition rate, colony formation of SW480 cells, 10 µg/ml antibody",[1],26.1%
same,titer (reciprocal dilution (1:x) of 1 mg/ml),[2],300
same,dilution factor (dilution factor),[3],100
